This is an account of results in the DeepSol protein solubility set.

The series is described as follows: soluble on expression in E. coli; label from the status in PepcDB or PDB records.
For the sequence “MAHHHHHHMMQSKVLPTPQDVVLQGLLSLDSTVKTKTHALVSRQLDRLESYLRIKCGWSVPLSSSSTSAEAGCGSNVVRVSEYVRAFTPDGVPIVDRNGGSFNCFVCCGFGDHAMDFAPGAAKVLGKLVEHQAQHLREEDIEKTKTWGLLTSKLSPSRRAAVEEELQLLFNGVDSDAVKRKGSRTPSEASALALLRHEDNPYSTNRFANMVRKEVKMDSSPPILSRLCALEDVFLTHLEPLRRRFHAKATELALRENTPDWLRTFVFCFMYEEDDDPAAQARKEQHVRSLQRLASQYETPVTDAKTTGDGAEELPLTPAEQSKRKQAELERRAREVFAKRV”, the “soluble on expression in E. coli” value is “not soluble”.

In the case of “MAPRGRYGPPSRRSENRVVVSGLPPSGSWQDLKDHMREAGDVCYADVYRDGTGVVEFVRKEDMTYAVRKLDNTKFRSHEGETAYIRVKVDGPRSPSYGRSRSRSRSRSRSLEH”, the “soluble on expression in E. coli” value is reported as “soluble”.

Consider “MDQKGILRFHEELASLVLKMRSKGIDDVRFFTALEKIPRQQFVSSPWFKSAYDNKVIPIECGEYIERLEEQLLILYALSLKKKHRVLEIGTGSGFCTAFMACLSDRVITVDRYKTLVDLARQKFQTLGIENIVVRQIDGSRIITGFGSFDRILIWPSRSDEPKEFLELLTENGILIQAIGPDEGVQTITRYTKIASRFECLEMFQVRYQPFIEGIAETL”, for which the “soluble on expression in E. coli” value was “not soluble”.

“MNAGKKGVIYTCITGGYDELLNHTFISPEWDYVCFSDDMGINNEKNAQWEIRPLRFEKLDDVRNQRWHKLHPHLLFPESGLSLWVDGNVDILDGEIFHDIDRALNANLLIAPSLHPERNCIYDEFDACRQLGKDDPDVMGRQEYLIKKDGFPKAKGLFETNIIFRCHSHPMVITIMEEWWYWVEQYSRRDQLGFTYVLWKNNYTVEPLSPVSYRFSPGVRFRYGAFHITKEQLIKEKAALEIKVQRFEALICGRLVKVLYKIRKSTVKRWCRVKMQLLNSLCCRKLEHHHHHH”: the “soluble on expression in E. coli” value is given as “not soluble”.

For the sequence “MGSDKIHHHHHHMQDLNDLSLFAQVVEHGSFSAASRATGIPKSRLSRRIAQLERDLGVQLLRRTTRQVRVTPLGESYYERCRAMLKEAEAAHEVIEQARDQPGGTLRVSCPVAIAQILLAPAIGHFMRANPAVRIELEATNRRVDVIGEGYDLSLRVRDVLEDSSLAVRTFGESQLMLVASPGLLDSIGRPRTPQALDGMPGVGQKPHDGKHVWVLGCKSGETIQIAYDPRLVTDEFSLLREAAIAGIGVAMLPRMYCRDAIDAGELELLLPQWEMPVGTLHAVFPSRKGVTPAVRRFLDFLSEILPENARKVGMHEPRQPAMHRAV”, the “soluble on expression in E. coli” value is recorded as “not soluble”.

For the sequence “MSLSHMANEMLLDIDGMDFVEDEDMGAEGELQFSFDPVSNAPMVSFPSTQQPDLEKLRFKFAPVLSRSFAFNGGSRTGTLYGVQVPYVDNSKEFSQYAAKLFEVYKSLGADKQFAVPTIGLINHTSTLEHNQTVNLALEAIVSELELFIESLKYSGRQQRLVDLEECLSILNCLKTVQFTLDSEEENSRAKFIDSLISWVNRTDGEPSEAVIAKVLGDGKQTPILENPYFWRLLCQLIIRGLFDQAVAAIEKSELLSYLADKCSATHTMVQDMVNLLQGYPRELEPVYREWKDLVLQLHLNWSQSEHKISIELASSLEDCLLIMCGNKSKIIYYSKTWYECYCGLMLYYIPSLQLSEEYLQLVLKEHPLDVTSPWEQACVSIITGKIYSILPVLDSLDSCTAAFTAAICEAKGLLENDLLDDGGLEVSNTGDEMFGLGNTMASYLLNQFALSIVTYEDKNLWAVAIGIIYLTPNYSDAAKRMMIAELLPHYPFQTNDDIEWMLTICAKWKLPQIARTIYRVLGQEALYLNNIIEAISNFSKAGEFEWVKHYSWMIFEASILQGAPLEDEVVNSIVTGEYESAIPKELVEVMVTPAMKQSLSPYAVLFNFFRATEDGRWAEALKLLLSLIEFTYLPPQYLILLIGRFLYPLFLQDESKMFKEQDVLRVIKALEQFHDRPDEITTAMYKELLVKVDTLPKDPLNLINAIRTKLSLKLCHQFMEGHHHHHH”, the “soluble on expression in E. coli” value is recorded as “not soluble”.

In the case of “MYEGLLIDIDYLLNVVKELKINFDKKIKTLNLLIERNIPIVLYTENNKEYVDTIMKYLKIKEPAIIVEGAQIYSPFDLSYEAVFPLSINTVCKLGNWAMDRKMDMSISTDKKVIDYSEWLKELRQVNYKNAGDKLPSAVKVDICMKNDDKRIELLNFIGKNNLECYAHMYLNHVACINSIVDKGNTLKYLANKKKWDIKKFAMIGDYSKDTSIFDEVGFLMSISDFTKDFEKNFDKTLKSDMMSIV”, the “soluble on expression in E. coli” value is on record as “soluble”.

“MEIIGGKEVSPHSRPFMASIQYGGHHVCGGVLIDPQWVLTAAHCQYRFTKGQSPTVVLGAHSLSKNEASKQTLEIKKFIPFSRVTSDPQSNDIMLVKLQTAAKLNKHVKMLHIRSKTSLRSGTKCKVTGWGATDPDSLRPSDTLREVTVTVLSRKLCNSQSYYNGDPFITKDMVCAGDAKGQKDSCKGDAGGPLICKGVFHAIVSGGHECGVATKPGIYTLLTKKYQTWIKSNLVPPHTN”: the “soluble on expression in E. coli” value is “soluble”.

Regarding “GPGSMFHNSYQAGFLSILYSIGSKPLQIWDSQVRNGHVKRITDEDIQSSVLEIMGSNVSTCYIVCPANPKQTLGIKLPFLVMIIKNMKKYFSFEVTILDDKNMRRRFRASNYQSTTKVKPFICTMPMRLDEGWNQIQFNLSDFTRRAYGTNYVETLRVQVHANCRIRRLYFSDRLYAEEELPPEFKLFLPIAQQPPAAAAAEQRDIEAADVPQAASAAQ”, the “soluble on expression in E. coli” value is “soluble”.

For the sequence “MGSDKIHHHHHHMIEQELTYQDLRIPSSEIYEAMGYKDSIPDQMVIDETNTLLKRVIPLLRPRFAFFFMEGTLDIEKETLSVQSIHPPTVNPIQDTIPTRSPEQNTFSTQSKSTVFSVGKTIARQLRGSEAFVFFAATAGTEFEVFQHTLQQEEDMVKIYIADSLGSIIAEKTADCMEVALAEYIREKNWKHTNRYSPGYCGWHVSEQQKLFPLFPIAAPCGIRLTDSSLMVPIKSVSGVIGTGTNVRKLEYTCGLCTYENCYRKRKHR”, the “soluble on expression in E. coli” value is “not soluble”.

Take “MGSDKIHHHHHHMQNPFTLTFGRSPLESVDRPVQINEIIENFTADTINQQMFIITGVRGSGKTVMMTEISHRLRENDDWVVIELNPATELLPAMLSKLNSDNICAGLIKSAKLDLSFFGFGVSIEGTQPITDAETAIIKILERLKKSGKRLLITIDEMTNSEYMKVFAGAFQIFVRQELPVFLLGTGLYENIEELQNEKSLTFLYRAPKIQLKPLNNAAIINKYKTIFNISPEKAAQMAGLTKGYPFAFQVLGYLTWNNGGDYNGILGEYEQYLSEFVYDKIWSELSQKDRMVAKGIADVQSGKIKEIRDAIGMETNEFNPYRKRLIKKGIVSGEIRGYVYFTLPLFEEYVIENY”: the “soluble on expression in E. coli” value is given as “not soluble”.

Consider “MKTWPAPTAPTPVRATVTVPGSKSQTNRALVLAALAAAQGRGASTISGALRSRDTELMLDALQTLGLRVDGVGSELTVSGRIEPGPGARVDCGLAGTVLRFVPPLAALGSVPVTFDGDQQARGRPIAPLLDALRELGVAVDGTGLPFRVRGNGSLAGGTVAIDASASSQFVSGLLLSAASFTDGLTVQHTGSSLPSAPHIAMTAAMLRQAGVDIDDSTPNRWQVRPGPVAARRWDIEPDLTNAVAFLSAAVVSGGTVRITGWPRVSVQPADHILAILRQLNAVVIHADSSLEVRGPTGYDGFDVDLRAVGELTPSVAALAALASPGSVSRLSGIAHLRGHETDRLAALSTEINRLGGTCRETPDGLVITATPLRPGIWRAYADHRMAMAGAIIGLRVAGVEVDDIAATTKTLPEFPRLWAEMVGPGQGWGYPQPRSGQRARRATGQGSGGKLAAALEHHHHH”, for which the “soluble on expression in E. coli” value was “soluble”.

Turning to “MKLTWIKCMSKTERISDIDEPRLFEENGVEAHIAAFVMPLLKPLGFRLVRVKLLGLNGLTLQIMVERPDGSMTVEDCETVSRTVSPLLDVQNVIERKYHLEISSPGIDRPLVRKSDFFHWQGHIAKIETKIILEGRRKFRGTLTNITQDGFTLNTDKAAYGESMYISIPFDDIIDAHLVLTDELIRDALKKNKDLSQQFISEDNQKLSKQERNYKN”, the “soluble on expression in E. coli” value is recorded as “not soluble”.

With “MSLKINVAPENPQYRIVEIFESLQGEGWNTGMPAVFVRLGKCNLACGWCDTDYLTFGMMGLSDILGRLKTYAARNIIITGGEPTIQPHLDMLLDTLKAEGYFLCLETNGLNPAPPQIDYVATSPKACYAAKYENSCIETADEVRIVADGDVLAFCENMERKIRAHHYYLSPCEQDGAMNIYDTIRQIGILNSRPDASVHWQLSVQTHKWAGIEEGHHHHHH”, the “soluble on expression in E. coli” value was “soluble”.

Take “MPMVRVATNLPNEKVPVDFEIRLTDLLARSMGKPRERIAVEIAAGARLVHGATHDPVTVISIKSIGAVSAEDNIRNTAAITEFCGKELGLPKDKVVITFHDLPPATVGFNGTTVAEANKK”: the “soluble on expression in E. coli” value is “not soluble”.

“MAHHHHHHMWLNDFFAMELDGRAAMDANWGVLLAAFFRGPKKYIRDAGVLGEMQASDRYKMMERAVRDEMDMEEDVSRLYNNGMYELLRWLVATAEVTASAHEVTKSFLDAAAEEARNPTTTSAPRYLEGCYESVYNARWNHVVEVPGGEGTGLEVREGEPPQSWTYRAVGRTLEKDDGVQQFGATRPVLMVLTSDKGWPYSRNTIQDLPKDVFVNCEVDRVWQIVKGDLTAWFSTDGGTDFRPERRVLIGTPGIGKLVAAGSYLLYQLLHYDLEKIQVVVHCFGGGDAYVSDKTTRAATRYGDEDMCISELRSLRGHGRNVYIIYDVAKEGTPPPRHFAPTSGWGMIAVSFPKVTNYDEWAKQLQAARIIVNCPD”: the “soluble on expression in E. coli” value was “not soluble”.

For the sequence “MNTNISGPLISLIVPVYNVKDYLKTCLQSILEQTYKNLEIILVDDGSDDGSSGICDEYARMDQRIKTIHLPHSGVSAARNAGLAAATGELLGFVDSDDWIDHDMYQYLYTLMQEHDADVSACTYLLEQEGRPSKIINNTGKLYVFSRKEIIRALVKNDLVKNYLWAKLFKRKLFDRLSFPVGRVYEDVAVLYKVFYSSQKVVLSCVSKYHYMIHKNESITRGGYDPVKEYHYFLSLYEQDKFIQNAELGGESSVGVLKRGIHLINHTLLCPPSPAFEDIIDETMLKMREYRHITPWQLGPSMSIKRYFMCKHFGFYRMLYRGYRAIFKRKHKLLID”, the “soluble on expression in E. coli” value is “not soluble”.

For the sequence “SALTIFSVKDPQNSLWHSTNAEEIQQQLNAKGVRFERWQADRDLGAAPTAETVIAAYQHAIDKLVAEKGYQSWDVISLRADNPQKEALREKFLNEHTHGEDEVRFFVEGAGLFCLHIGDEVFQVLCEKNDLISVPAHTPHWFDMGSEPNFTAIRIFDNPEGWIAQFTGDDIASAYPRLA”, the “soluble on expression in E. coli” value is on record as “soluble”.

As to “MGSDKIHHHHHHLISTANITMQFGPEPLFENISAKFGNGNRYGLIGANGCGKSTFMKILSGALAPTSGNVSITPGLKVGTLSQDQFAFEQYTVIDAVIMGDVQLWKVKQERDAIYAKADMTEEDGMRVGDLESEFAEMDGYSAESRAGEILIEAGIEESFHYGPMSQVAPGWKLRVLLAQALFANPDILLLDEPTNNLDIHTISWLETELNKRKCTMIIISHDRHFLNAVCTHMADIDYGELRIYPGNYEYFLAQSSLLREQLLAGNAKKSAEIEELQDFVNRFGANASKAKQASSRAKRMDKIKLDEVKSSSRITPSIRFAAGKKMHRQALVLENLGHGFDGELLFQGGDLILEAGAKLAIIGENGVGKTTLLRCLVNELIHNEGTIKWSENASIGYCPQDSTSDFDNDLTIMEWMDQWRQPKHNDLMVRAMLGRLLFTEDDANKKAKNCSGGEKNRLIFGKLMMQDINVIIMDEPTNHMDMEAIEALNNALKDFEGTLIFVSHDREFVSSLATRIIDIKDKKLINFQGTFDEYLSSQADIMARQHA”, the “soluble on expression in E. coli” value is given as “not soluble”.

For “MGSDKIHHHHHHVHHRHHKKGIIHRDADEMIEFPKRSNDRLGETMIHGQIICHGTPLDYVRPYLSSKKYPRVIINICVSDDGGWYRLTTGNMFDLEGSVTFTVRHQCLMDKLPPMIQCAVPYYTTEVTIDLSSNTTYIGRSFELSKMEAYSSADCLY”, the “soluble on expression in E. coli” value was “not soluble”.
